The source of these data is the supplement of paper PMC10567573.

Sequences and labels used below:
B1: INTS3 (parent)
chain: EEITEESLEESVGKPLYLIFRNLC
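Also: lentivirally expressed fusions sorted by FACS into six bins by GFP to DsRed ratio, PSI derived from sequencing read proportions per bin multiplied by bin number.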

Variants of B1 are the subject of the data set. Briefly: protein stability index of a GFP-peptide fusion (GPS, HEK-293T) (PSI 1-6); higher = more stable. As to conditions: c terminus: a fixed tail appended.
Take EEITEESLEEFVGKPLYLIFRNLC: the protein stability index worked out at 2.57. With EEITEESLEETVGKPLYLIFRNLC, the protein stability index was 2.79. For EEITEESLEEEVGKPLYLIFRNLC, the protein stability index was found to be 2.55. For the variant EEITEESLEEVVGKPLYLIFRNLC, the protein stability index was 2.32.

As for EEITEESLEEHVGKPLYLIFRNLC, the protein stability index was determined as 2.56.

As for EEITEESLEEIVGKPLYLIFRNLC, the protein stability index was determined as 2.52. Consider EEITEESLEEQVGKPLYLIFRNLC, for which the protein stability index came to 3.33. As for EEITEESLEEWVGKPLYLIFRNLC, the protein stability index came to 2.4.

EEITEESLEEDVGKPLYLIFRNLC: the protein stability index was 3.03. Turning to EEITEESLEEGVGKPLYLIFRNLC, the protein stability index came out at 2.9. With EEITEESLEEPVGKPLYLIFRNLC, the protein stability index turned out to be 2.36. EEITEESLEEMVGKPLYLIFRNLC: the protein stability index was determined as 2.8. Consider EEITEESLEERVGKPLYLIFRNLC, for which the protein stability index amounted to 2.71.

As for EEITEESLEECVGKPLYLIFRNLC, the protein stability index was found to be 2.34. Turning to EEITEESLEENVGKPLYLIFRNLC, the protein stability index turned out to be 2.96. EEITEESLEEAVGKPLYLIFRNLC: the protein stability index was 2.57. Regarding EEITEESLEELVGKPLYLIFRNLC, the protein stability index turned out to be 2.51.

Take EEITEESLEEKVGKPLYLIFRNLC: the protein stability index came out at 2.61. In the case of EEITEESLECSVGKPLYLIFRNLC, the protein stability index stood at 1.96.

EEITEESLEISVGKPLYLIFRNLC: the protein stability index is 1.77. As for EEITEESLEYSVGKPLYLIFRNLC, the protein stability index was 2.23. Turning to EEITEESLEWSVGKPLYLIFRNLC, the protein stability index came out at 2.21. Regarding EEITEESLERSVGKPLYLIFRNLC, the protein stability index is 2.24. Take EEITEESLEGSVGKPLYLIFRNLC: the protein stability index was found to be 2.82.

On to EEITEESLENSVGKPLYLIFRNLC, for which the protein stability index was 2.78. Turning to EEITEESLELSVGKPLYLIFRNLC, the protein stability index worked out at 2.07. Consider EEITEESLETSVGKPLYLIFRNLC, for which the protein stability index came out at 2.55. With EEITEESLEVSVGKPLYLIFRNLC, the protein stability index was 2.09. Next, EEITEESLEHSVGKPLYLIFRNLC: 2.25; EEITEESLEPSVGKPLYLIFRNLC: 2.36. Regarding EEITEESLEDSVGKPLYLIFRNLC, the protein stability index worked out at 3.09. For EEITEESLEFSVGKPLYLIFRNLC, the protein stability index is 1.92. For EEITEESLEASVGKPLYLIFRNLC, the protein stability index came to 2.64. As to EEITEESLEMSVGKPLYLIFRNLC, the protein stability index is 2.24. On to EEITEESLESSVGKPLYLIFRNLC, for which the protein stability index worked out at 2.79.

Turning to EEITEESLEQSVGKPLYLIFRNLC, the protein stability index came out at 2.67. On to EEITEESLEKSVGKPLYLIFRNLC, for which the protein stability index came to 2.5. Under EEITEESNEESVGKPLYLIFRNLC stands 3.34; under EEITEESFEESVGKPLYLIFRNLC, 2.57; under EEITEESEEESVGKPLYLIFRNLC, 3.2. Consider EEITEESWEESVGKPLYLIFRNLC, for which the protein stability index amounted to 1.95.

Regarding EEITEESPEESVGKPLYLIFRNLC, the protein stability index was 3.11. Consider EEITEESMEESVGKPLYLIFRNLC, for which the protein stability index stood at 2.86. Consider EEITEESKEESVGKPLYLIFRNLC, for which the protein stability index amounted to 3.42. EEITEESAEESVGKPLYLIFRNLC: the protein stability index stood at 3.46.

For EEITEESYEESVGKPLYLIFRNLC, the protein stability index worked out at 2.97. Regarding EEITEESIEESVGKPLYLIFRNLC, the protein stability index is 2.47. For the variant EEITEESHEESVGKPLYLIFRNLC, the protein stability index is 3.26. For EEITEESQEESVGKPLYLIFRNLC, the protein stability index was found to be 3.32. EEITEESVEESVGKPLYLIFRNLC: the protein stability index was 3.15.

As for EEITEESDEESVGKPLYLIFRNLC, the protein stability index came to 3.35. As for EEITEESGEESVGKPLYLIFRNLC, the protein stability index was 3.21. As for EEITEESCEESVGKPLYLIFRNLC, the protein stability index came to 3.3. On to EEITEESREESVGKPLYLIFRNLC, for which the protein stability index stood at 3.09.

With EEITEESSEESVGKPLYLIFRNLC, the protein stability index was found to be 3.48. For the variant EEITEESTEESVGKPLYLIFRNLC, the protein stability index was found to be 3.42.

Consider EEITEESLVESVGKPLYLIFRNLC, for which the protein stability index was found to be 2.14. Take EEITEESLLESVGKPLYLIFRNLC: the protein stability index was 2.93.

With EEITEESLKESVGKPLYLIFRNLC, the protein stability index amounted to 2.5. Under EEITEESLSESVGKPLYLIFRNLC stands 2.3; under EEITEESLCESVGKPLYLIFRNLC, 2.25; under EEITEESLHESVGKPLYLIFRNLC, 2.35.

On to EEITEESLRESVGKPLYLIFRNLC, for which the protein stability index worked out at 2.41. EEITEESLFESVGKPLYLIFRNLC: the protein stability index was 2.05.

With EEITEESLYESVGKPLYLIFRNLC, the protein stability index was determined as 1.96. As to EEITEESLQESVGKPLYLIFRNLC, the protein stability index was determined as 2.44.

As for EEITEESLGESVGKPLYLIFRNLC, the protein stability index turned out to be 2.72. Regarding EEITEESLNESVGKPLYLIFRNLC, the protein stability index worked out at 2.3. With EEITEESLPESVGKPLYLIFRNLC, the protein stability index amounted to 2.18. Regarding EEITEESLTESVGKPLYLIFRNLC, the protein stability index is 2.54. In the case of EEITEESLWESVGKPLYLIFRNLC, the protein stability index amounted to 2.09. Take EEITEESLIESVGKPLYLIFRNLC: the protein stability index was 2.14. EEITEESLDESVGKPLYLIFRNLC: the protein stability index came out at 2.77. For the variant EEITEESLMESVGKPLYLIFRNLC, the protein stability index stood at 2.28.

Regarding EEITEESLAESVGKPLYLIFRNLC, the protein stability index is 2.97. Next, EEITEERLEESVGKPLYLIFRNLC: 2.98.

Turning to EEITEEQLEESVGKPLYLIFRNLC, the protein stability index was found to be 2.83. Under EEITEEGLEESVGKPLYLIFRNLC stands 2.75; under EEITEEPLEESVGKPLYLIFRNLC, 3.02. As to EEITEETLEESVGKPLYLIFRNLC, the protein stability index was 3.13. As for EEITEECLEESVGKPLYLIFRNLC, the protein stability index came to 2.56. Under EEITEENLEESVGKPLYLIFRNLC stands 2.98; under EEITEEALEESVGKPLYLIFRNLC, 2.88; under EEITEELLEESVGKPLYLIFRNLC, 2.33. Consider EEITEEMLEESVGKPLYLIFRNLC, for which the protein stability index is 2.47. For the variant EEITEEELEESVGKPLYLIFRNLC, the protein stability index came to 2.77.

Take EEITEEKLEESVGKPLYLIFRNLC: the protein stability index came out at 2.55. Regarding EEITEEFLEESVGKPLYLIFRNLC, the protein stability index was found to be 2.33. Take EEITEEDLEESVGKPLYLIFRNLC: the protein stability index turned out to be 2.87. As for EEITEEILEESVGKPLYLIFRNLC, the protein stability index turned out to be 2.47.

For the variant EEITEEWLEESVGKPLYLIFRNLC, the protein stability index came to 2.46.

In the case of EEITEEVLEESVGKPLYLIFRNLC, the protein stability index was 3.02. As to EEITEEHLEESVGKPLYLIFRNLC, the protein stability index was determined as 3.13. As to EEITEEYLEESVGKPLYLIFRNLC, the protein stability index is 2.15.
